Measured values reported in the Immune Epitope Database (IEDB).

Experiments:
HLA-A*02:01 [1] = assay: IEDB peptide-MHC binding, purified MHC/competitive/fluorescence; ≥ and ≤ were set here for values at or beyond the usual limits of such assays
HLA-A*24:02 [2] = assay: as above
HLA-B*07:02 = assay: IEDB peptide-MHC binding, purified MHC/direct/fluorescence; filed as Kd, often an IC50 or EC50 that approximates it; ≥ and ≤ were set here for values at or beyond the usual limits of such assays
HLA-A*23:01 = assay: IEDB peptide-MHC binding, purified MHC/competitive/radioactivity; filed as Kd, often an IC50 or EC50 that approximates it; ≥ and ≤ were set here for values at or beyond the usual limits of such assays; conditions: source organism: Mammarenavirus mopeiaense
HLA-A*24:02 [3] = assay: as above; conditions: source organism: Mammarenavirus mopeiaense
HLA-A*26:01 = assay: as above
HLA-A*30:01 = assay: as above
HLA-A*32:01 = assay: as above
HLA-A*01:01 [4] = assay: as above
HLA-A*29:02 = assay: as above
HLA-A*30:02 = assay: as above
HLA-B*44:03 = assay: as above
HLA-A*02:01 [5] = assay: IEDB peptide-MHC binding, purified MHC/direct/fluorescence; filed as Kd, often an IC50 or EC50 that approximates it; ≥ and ≤ were set here for values at or beyond the usual limits of such assays; conditions: source organism: Vaccinia virus Copenhagen
HLA-A*69:01 = assay: as above
HLA-B*15:01 = assay: as above
HLA-B*58:01 = assay: as above
HLA-A*02:01 [6] = assay: IEDB peptide-MHC binding, purified MHC/competitive/fluorescence; filed as Kd, often an IC50 or EC50 that approximates it; ≥ and ≤ were set here for values at or beyond the usual limits of such assays
HLA-A*11:01 = assay: IEDB peptide-MHC binding, purified MHC/direct/fluorescence; filed as Kd, often an IC50 or EC50 that approximates it; ≥ and ≤ were set here for values at or beyond the usual limits of such assays
HLA-B*40:01 = assay: IEDB peptide-MHC binding, purified MHC/competitive/radioactivity; filed as Kd, often an IC50 or EC50 that approximates it; ≥ and ≤ were set here for values at or beyond the usual limits of such assays
HLA-B*44:02 = assay: as above
HLA-A*01:01 [7] = assay: IEDB peptide-MHC binding, purified MHC/direct/fluorescence; filed as Kd, often an IC50 or EC50 that approximates it; ≥ and ≤ were set here for values at or beyond the usual limits of such assays; conditions: source organism: Human immunodeficiency virus 1
[8] = source organism: Zaire ebolavirus
[9] = source organism: Mammarenavirus mopeiaense
[10] = source organism: Mammarenavirus lassaense
[11] = source organism: Dengue virus 1 Brazil/97-11/1997
[12] = source organism: Vaccinia virus WR
[13] = source organism: Vaccinia virus Copenhagen
[14] = source organism: Dengue virus 4 Philippines/H241/1956
[15] = source organism: Vaccinia virus
[16] = source organism: Mammarenavirus guanaritoense
[17] = source organism: Dengue virus 3 Martinique/1243/1999
[18] = source organism: Sudan ebolavirus
[19] = source organism: Human immunodeficiency virus 1

For PWLTEKEAM, the IC50 (HLA-A*02:01 [1]; [8]) was ≥ 216 µM and the IC50 (HLA-A*24:02 [2]; [8]) was 0.435 µM.
In the case of SKSTDFLDP, the IC50 (HLA-A*24:02 [2]; [8]) is reported as ≥ 592 µM.
Sequence RPRHQGVMV has a Kd (HLA-B*07:02; source organism: Homo sapiens) of 0.0515 µM.
In the case of HEHDQIGDI, the IC50 (HLA-A*24:02 [2]; source organism: Variola virus) is reported as 23.8 µM.
In the case of EDPSSGYYS, the IC50 (HLA-A*24:02 [2]; [8]) is reported as ≥ 185 µM.
EAMNEENRF was tested, and the IC50 (HLA-A*24:02 [2]; [8]) was ≥ 147 µM.
With LCLSGEGWPY the Kd (HLA-A*23:01) was ≥ 70 µM, the Kd (HLA-A*24:02 [3]) was ≥ 70.3 µM and the Kd (HLA-A*26:01; [9]) was ≥ 69.7 µM. The Kd (HLA-A*30:01; [9]) was ≥ 70.4 µM and the Kd (HLA-A*32:01; [9]) was ≥ 53.2 µM.
For PNERRAWNSL, the Kd (HLA-A*32:01; source organism: Dengue virus 4 Dominica/814669/1981) was 1.3 µM.
Sequence FYSQESPQSY has a Kd (HLA-A*01:01 [4]; [10]) of 0.758 µM, a Kd (HLA-A*26:01; [10]) of 0.38 µM and a Kd (HLA-A*29:02; [10]) of 0.00176 µM. For the same sequence, the Kd (HLA-A*30:01; [10]) was ≥ 49.5 µM, the Kd (HLA-A*30:02; [10]) was 2.93 µM and the Kd (HLA-A*32:01; [10]) was 9.4 µM.
With NELNHILLE the Kd (HLA-B*44:03; [11]) was 15.3 µM.
With AATEAEKQL the IC50 (HLA-A*02:01 [1]; [8]) was ≥ 436 µM.
For LEHGLFPQL, the IC50 (HLA-A*02:01 [1]; [8]) was ≥ 73.2 µM and the IC50 (HLA-A*24:02 [2]; [8]) was 8.3 µM.
Work on KMSYSSVMI yielded a Kd (HLA-A*32:01; [12]) of 0.014 µM.
For DLGPAFTEL, the Kd (HLA-A*02:01 [5]) was 0.219 µM, the Kd (HLA-A*69:01; [13]) was 0.0222 µM and the Kd (HLA-B*15:01; [13]) was ≥ 27.7 µM. It also gave a Kd (HLA-B*58:01; [13]) of 8.71 µM.
For VTLRKERLA, the IC50 (HLA-A*02:01 [1]; [8]) was ≥ 360 µM.
ELLEPLYDV was tested, and the Kd (HLA-A*02:01 [6]; source organism: Escherichia coli) was 0.0018 µM.
With TTLPVNVAF the Kd (HLA-A*11:01; source organism: SARS-CoV1) was ≥ 27.3 µM, the Kd (HLA-A*69:01; source organism: SARS-CoV1) was 0.02 µM and the Kd (HLA-B*07:02; source organism: SARS-CoV1) was 5.76 µM. For the same sequence, the Kd (HLA-B*15:01; source organism: SARS-CoV1) was 1.76 µM and the Kd (HLA-B*58:01; source organism: SARS-CoV1) was 0.329 µM.
NLATSIYTI gave a Kd (HLA-A*02:01 [6]; source organism: Variola virus) of 0.0011 µM.
With RLGYILEDI the Kd (HLA-A*32:01; [14]) was 7.18 µM.
In the case of SSKYYIKNI, the IC50 (HLA-A*24:02 [2]; [15]) is reported as ≥ 1450 µM.
GESSSNPTI gave a Kd (HLA-B*40:01; [14]) of 0.0168 µM and a Kd (HLA-B*44:02; [14]) of 0.0752 µM.
KRTLAAMPE gave an IC50 (HLA-A*24:02 [2]; [8]) of 42.9 µM.
For GTAKLRWFVE, the Kd (HLA-A*32:01; [11]) was ≥ 21.1 µM.
With IHAHHQWMTT the Kd (HLA-A*32:01; [11]) was ≥ 26.8 µM.
VISNSVAQA was tested, and the IC50 (HLA-A*02:01 [1]; [8]) was 5.79 µM.
GEIGAVTLDF showed a Kd (HLA-B*40:01; [14]) of 0.073 µM, a Kd (HLA-B*44:02; [14]) of 0.017 µM and a Kd (HLA-B*44:03; [14]) of 0.0216 µM.
Sequence FTFSNVCESV has a Kd (HLA-A*02:01 [6]; source organism: Vaccinia virus Tian Tan) of 0.0084 µM.
Sequence QLVKGFERFQ has a Kd (HLA-A*02:01 [6]; source organism: Variola virus) of 0.634 µM.
In the case of TKIDSMFLM, the IC50 (HLA-A*02:01 [1]; source organism: Variola virus) is reported as 38 µM.
For YRGTTFAEG, the IC50 (HLA-A*24:02 [2]; [8]) was ≥ 147 µM.
LSNYIVSIF showed a Kd (HLA-A*32:01; [12]) of 0.111 µM.
With DLMSMSDGEF the Kd (HLA-A*01:01 [4]; [16]) was ≥ 41.2 µM, the Kd (HLA-A*26:01; [16]) was 0.673 µM and the Kd (HLA-A*29:02; [16]) was 8.87 µM. For the same sequence, the Kd (HLA-A*30:01; [16]) was ≥ 70.4 µM, the Kd (HLA-A*30:02; [16]) was 1.92 µM and the Kd (HLA-A*32:01; [16]) was ≥ 22.9 µM.
With RENLLLGVGL the Kd (HLA-B*40:01; [17]) was 0.00247 µM, the Kd (HLA-B*44:02; [17]) was 0.0214 µM and the Kd (HLA-B*44:03; [17]) was 0.292 µM.
With NLEDLIEWA the IC50 (HLA-A*02:01 [1]; [15]) was ≥ 137 µM.
LYDRLASTV showed an IC50 (HLA-A*02:01 [1]; [18]) of 7.48 µM and an IC50 (HLA-A*24:02 [2]; [18]) of 1.32 µM.
Sequence PVILSLPRI has an IC50 (HLA-A*02:01 [1]; source organism: Variola virus) of 1.87 µM.
Sequence TVLDVGDAY has a Kd (HLA-A*01:01 [7]) of 10.2 µM, a Kd (HLA-A*11:01; [19]) of 0.436 µM and a Kd (HLA-B*15:01; [19]) of 0.17 µM.
With LVINRLGAD the IC50 (HLA-A*02:01 [1]; [12]) was ≥ 131 µM.
IPRRIRQGL was tested, and the Kd (HLA-B*07:02; source organism: Human immunodeficiency virus type 1 (WMJ2 ISOLATE)) was 0.0948 µM.
In the case of SIINSNVTW, the Kd (HLA-A*32:01; source organism: Vaccinia virus L-IPV) is reported as 0.0111 µM.
For EEMFKKRNLT, the Kd (HLA-B*44:03; [17]) was 4.53 µM.
Sequence TESHNQTFL has a Kd (HLA-B*40:01; source organism: Dengue virus 2 Jamaica/1409/1983) of 0.0163 µM.
In the case of IEETNMITL, the Kd (HLA-B*40:01; [14]) is reported as 0.0119 µM.
With VIPVYQVNN the IC50 (HLA-A*02:01 [1]; [8]) was ≥ 340 µM.
With AGISYKDREW the Kd (HLA-B*44:02; [14]) was 0.843 µM and the Kd (HLA-B*44:03; [14]) was 4.17 µM.
VELPNSLEEL was tested, and the Kd (HLA-B*40:01; [11]) was 0.0292 µM.
FGNLSPETL was tested, and the IC50 (HLA-A*02:01 [1]; [15]) was 59.5 µM and the IC50 (HLA-A*24:02 [2]; [15]) was 57.8 µM.
EERDDTLTI gave a Kd (HLA-B*44:03; [11]) of 1.43 µM.
With ILYYLSAKI the Kd (HLA-A*32:01; [13]) was 0.00887 µM.
